Reference: patent US8491890

Biological target: Fas (CD95, APO-1) on mouse microglia (mouse) (UniProt P25446)
Assay: cell-based or functional assay

UniProt P25446, sequence (P25446 22-327): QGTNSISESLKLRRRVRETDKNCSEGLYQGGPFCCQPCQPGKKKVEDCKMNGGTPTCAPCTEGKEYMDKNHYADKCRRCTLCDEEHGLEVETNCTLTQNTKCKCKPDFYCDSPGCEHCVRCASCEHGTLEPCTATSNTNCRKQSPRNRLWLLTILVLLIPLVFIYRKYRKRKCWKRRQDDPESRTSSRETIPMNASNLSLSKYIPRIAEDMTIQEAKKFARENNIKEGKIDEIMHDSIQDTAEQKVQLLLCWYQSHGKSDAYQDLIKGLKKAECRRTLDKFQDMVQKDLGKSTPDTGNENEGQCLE

Substance: Fas ligand (FasL) on mouse Treg and Teff (from UniProt P41047 1-279)
- decrease of CB expression in Teff-treated cultures on blocking of FasL interactions (flow cytometry): 4.8%
- decrease of CB protein expression in Treg-treated microglia on neutralization of FasL (flow cytometry): 40.2%
